In patent publication US20230265215A1 (OMEROS, published 2023):
Several values for one entry are separate records, joined by “and”; a condition that tells them apart may be missing. Identical values can stand only once.

B1: mAb OMS870 (mouse-human chimeric, mouse parental variable regions) (antibody, human IgG4 S228P, kappa, V domains shown)
VH: EVQLQQPGTELVKPGASVKLSCKASGYTFTSYWMHWVKQRPGQGLEWIGNINPSNGGTNCNEKFKNKATMTVDKSSSTAYMQLSSLTSEDSAVYYCARWAYDAMDYWGQGTSVTVSS
VL: DIVLTQSPASLAVSLGQRATISCRASESVDSYGNSFMHWYQQKPGQAPKLLIYFASNLESGVPARFSGSGSRTDFTLTIDPVEADDAATYFCQQSNEDPLTFGAGTKLELKR
B2: mAb OMS850 (mouse-human chimeric, mouse parental variable regions) (antibody, human IgG4 S228P, kappa, V domains shown)
VH: QVQLQQPGAELVRPGSSVRLSCKASGYTFTNYWMHWLKQRPIQGLEWIGDIDPSDSETHYIEKFKDKATLTIDKSSSTAYMHLSSLTSEDSAIYYCARGDITTTLRYFDVWGTGTTVTVSS
VL: QIVLTQSPVIMSASPGEKVTMTCSASSSVRYMYWYQQKPGSSPRLLIYDTSNLASGVPVRFSGSGSGTSNSLTISRMEAEDAATYYCQQWSSYPLTFGAGTKLELKR
notes: also called OMS850 parent
B3: OMS850_VH_P53/A (antibody, IgG4, V domains shown)
VH: QVQLQQPGAELVRPGSSVRLSCKASGYTFTNYWMHWLKQRPIQGLEWIGDIDASDSETHYIEKFKDKATLTIDKSSSTAYMHLSSLTSEDSAIYYCARGDITTTLRYFDVWGTGTTVTVSS
VL: QIVLTQSPVIMSASPGEKVTMTCSASSSVRYMYWYQQKPGSSPRLLIYDTSNLASGVPVRFSGSGSGTSNSLTISRMEAEDAATYYCQQWSSYPLTFGAGTKLELKR
B4: OMS850_VH_P53/D (antibody, IgG4, V domains shown)
VH: QVQLQQPGAELVRPGSSVRLSCKASGYTFTNYWMHWLKQRPIQGLEWIGDIDDSDSETHYIEKFKDKATLTIDKSSSTAYMHLSSLTSEDSAIYYCARGDITTTLRYFDVWGTGTTVTVSS
VL: QIVLTQSPVIMSASPGEKVTMTCSASSSVRYMYWYQQKPGSSPRLLIYDTSNLASGVPVRFSGSGSGTSNSLTISRMEAEDAATYYCQQWSSYPLTFGAGTKLELKR
B5: OMS850_VH_P53/N (antibody, IgG4, V domains shown)
VH: QVQLQQPGAELVRPGSSVRLSCKASGYTFTNYWMHWLKQRPIQGLEWIGDIDNSDSETHYIEKFKDKATLTIDKSSSTAYMHLSSLTSEDSAIYYCARGDITTTLRYFDVWGTGTTVTVSS
VL: QIVLTQSPVIMSASPGEKVTMTCSASSSVRYMYWYQQKPGSSPRLLIYDTSNLASGVPVRFSGSGSGTSNSLTISRMEAEDAATYYCQQWSSYPLTFGAGTKLELKR
B6: mAb OMS860 (mouse-human chimeric, mouse parental variable regions) (antibody, human IgG4 S228P, kappa, V domains shown)
VH: QVQLQQPGAELVRPGSSVKLSCKASGYTFTNYWMHWVRQRPIQGLEWIGDIDPSDSEIYYNQKFKDKATLTVDKSSSTAYMHLSSLTSEDSAVYYCARGDITTTLRYFDVWGTGTTVTVSS
VL: QIVLTQSPVIMSASPGEKVTITCSASSSVSYMYWYQQKPGSSPRLLIYDTSNLASGVPVRFSGSGSGTSNSLTISRMEAEDAATYYCQQWSSYPLTFGAGTKLELKR
B7: OMS854 (monoclonal antibody OMS852 4PA-1) (antibody, V domains shown)
VH: QVQLVQSGAEVKKPGASVKVSCKASGYTFTNYWMHWLRQAPGQGLEWIGDIDASDSETHYIEKFKDRATLTIDKSSSTAYMELSSLRSEDTAVYYCARGDITTTLRYFDVWGQGTLVTVSS
VL: DIQLTQSPSSLSASVGDRVTITCSASSSVRYMYWYQQKPGKAPKLLIYDTSNLASGVPSRFSGSGSGTDNTLTISSLQPEDFATYYCQQWSSYPLTFGQGTKVEIKR

Columns and labels:
[1] = target: T1, human MASP-2 (endogenous, in normal human serum) (human, UniProt O00187 16-686); experiment: cell-based or functional assay
T1 sequence (O00187 16-686 limits assumed): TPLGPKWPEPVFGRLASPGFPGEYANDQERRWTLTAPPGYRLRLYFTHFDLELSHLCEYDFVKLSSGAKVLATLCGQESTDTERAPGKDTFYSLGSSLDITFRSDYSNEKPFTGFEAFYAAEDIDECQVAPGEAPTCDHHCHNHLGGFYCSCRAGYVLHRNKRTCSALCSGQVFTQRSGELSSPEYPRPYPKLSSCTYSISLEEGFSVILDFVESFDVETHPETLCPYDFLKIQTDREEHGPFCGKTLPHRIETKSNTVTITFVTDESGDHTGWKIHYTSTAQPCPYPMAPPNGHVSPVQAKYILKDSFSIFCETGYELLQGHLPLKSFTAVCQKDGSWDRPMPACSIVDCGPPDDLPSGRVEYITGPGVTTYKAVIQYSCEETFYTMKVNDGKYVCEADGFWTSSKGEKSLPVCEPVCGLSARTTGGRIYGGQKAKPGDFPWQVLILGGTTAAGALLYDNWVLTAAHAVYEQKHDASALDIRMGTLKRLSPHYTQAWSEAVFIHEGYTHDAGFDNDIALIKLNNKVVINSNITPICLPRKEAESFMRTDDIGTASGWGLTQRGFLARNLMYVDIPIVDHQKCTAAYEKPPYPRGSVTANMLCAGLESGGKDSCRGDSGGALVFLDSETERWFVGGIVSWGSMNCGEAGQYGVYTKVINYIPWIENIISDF

[2] = target: cynomolgus monkey MASP-2 (endogenous, in cynomolgus monkey serum) (cynomolgus monkey, UniProt O00187 16-686 (human entry), limits assumed); experiment: cell-based or functional assay
cynomolgus monkey MASP-2 (endogenous, in cynomolgus monkey serum), sequence (O00187 other isoform, or with tags, fused parts or gaps limits assumed): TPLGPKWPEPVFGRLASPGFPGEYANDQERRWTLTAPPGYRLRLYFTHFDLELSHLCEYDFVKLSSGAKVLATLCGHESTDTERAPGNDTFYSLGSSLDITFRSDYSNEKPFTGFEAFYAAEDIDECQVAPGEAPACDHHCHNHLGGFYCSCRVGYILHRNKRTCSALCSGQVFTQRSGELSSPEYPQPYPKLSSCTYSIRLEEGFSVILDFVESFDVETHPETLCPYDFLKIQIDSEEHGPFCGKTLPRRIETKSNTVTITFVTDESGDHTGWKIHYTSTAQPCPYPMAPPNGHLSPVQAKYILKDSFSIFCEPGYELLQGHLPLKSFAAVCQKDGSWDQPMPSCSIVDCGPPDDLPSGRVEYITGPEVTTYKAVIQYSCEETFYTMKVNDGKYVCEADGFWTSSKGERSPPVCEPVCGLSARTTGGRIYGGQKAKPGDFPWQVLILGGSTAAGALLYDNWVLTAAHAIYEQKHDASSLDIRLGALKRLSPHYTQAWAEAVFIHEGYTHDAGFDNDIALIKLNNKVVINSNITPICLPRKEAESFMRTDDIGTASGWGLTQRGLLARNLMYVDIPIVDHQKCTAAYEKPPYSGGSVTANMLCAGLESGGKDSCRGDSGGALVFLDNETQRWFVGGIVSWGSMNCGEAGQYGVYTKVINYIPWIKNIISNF

[3] = target: rat MASP-2 (endogenous, in rat serum) (rat, UniProt Q9JJS8 20-685); experiment: cell-based or functional assay
rat MASP-2 (endogenous, in rat serum), sequence (Q9JJS8 other isoform, or with tags, fused parts or gaps limits assumed): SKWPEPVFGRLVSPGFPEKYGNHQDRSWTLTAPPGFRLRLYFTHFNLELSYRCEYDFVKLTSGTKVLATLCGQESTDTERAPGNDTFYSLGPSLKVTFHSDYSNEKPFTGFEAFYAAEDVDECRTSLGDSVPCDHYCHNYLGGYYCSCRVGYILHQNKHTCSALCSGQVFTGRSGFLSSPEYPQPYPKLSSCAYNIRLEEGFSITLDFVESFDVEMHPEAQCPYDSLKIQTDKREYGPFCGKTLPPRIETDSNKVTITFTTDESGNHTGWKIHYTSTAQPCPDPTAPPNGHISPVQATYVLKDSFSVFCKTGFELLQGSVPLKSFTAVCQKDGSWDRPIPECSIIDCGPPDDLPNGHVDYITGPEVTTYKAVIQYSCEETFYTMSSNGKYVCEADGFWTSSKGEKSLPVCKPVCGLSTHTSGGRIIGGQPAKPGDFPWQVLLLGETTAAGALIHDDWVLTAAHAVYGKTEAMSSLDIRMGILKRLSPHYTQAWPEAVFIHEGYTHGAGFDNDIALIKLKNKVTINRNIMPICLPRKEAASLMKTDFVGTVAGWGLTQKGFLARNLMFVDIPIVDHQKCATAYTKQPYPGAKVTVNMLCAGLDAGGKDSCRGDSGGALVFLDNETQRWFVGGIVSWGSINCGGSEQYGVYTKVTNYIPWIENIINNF

[4] = target: mouse MASP-2 (endogenous, in mouse serum or hirudin plasma) (mouse, UniProt Q91WP0 20-685); experiment: cell-based or functional assay
mouse MASP-2 (endogenous, in mouse serum or hirudin plasma), sequence (Q91WP0 20-685 limits assumed): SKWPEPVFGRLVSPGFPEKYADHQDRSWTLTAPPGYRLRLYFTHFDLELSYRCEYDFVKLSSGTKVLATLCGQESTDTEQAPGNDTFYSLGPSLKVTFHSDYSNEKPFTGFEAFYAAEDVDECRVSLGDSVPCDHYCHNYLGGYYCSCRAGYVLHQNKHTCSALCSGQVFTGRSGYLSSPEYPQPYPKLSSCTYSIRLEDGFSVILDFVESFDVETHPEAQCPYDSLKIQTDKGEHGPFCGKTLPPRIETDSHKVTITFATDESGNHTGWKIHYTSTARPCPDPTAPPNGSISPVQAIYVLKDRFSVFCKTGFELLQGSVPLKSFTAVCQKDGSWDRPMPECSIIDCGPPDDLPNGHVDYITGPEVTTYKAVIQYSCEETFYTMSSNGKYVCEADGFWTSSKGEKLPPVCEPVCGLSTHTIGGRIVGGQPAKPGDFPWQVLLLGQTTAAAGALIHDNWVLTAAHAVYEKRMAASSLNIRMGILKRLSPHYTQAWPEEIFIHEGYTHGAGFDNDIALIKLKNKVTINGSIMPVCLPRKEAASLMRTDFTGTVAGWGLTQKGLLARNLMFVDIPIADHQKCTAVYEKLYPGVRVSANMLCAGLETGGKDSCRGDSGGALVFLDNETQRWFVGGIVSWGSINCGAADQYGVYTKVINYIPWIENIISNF

[5] = target: T1, human MASP-2 (endogenous, in normal …); experiment: cell-based or functional assay; remark: listed apart in the source
[6] = target: T2, human MASP-2 (CCP1-CCP2-SP fragment) (human, UniProt O00187 287-686, limits assumed); experiment: solid phase ELISA, plate coated with human MASP-2 CCP1-CCP2-SP fragment
T2 construct: also called human MASP-2 (CCP1/2/SP fragment); hMASP-2-CCP1-CCP2-SP
T2 sequence (O00187 287-686 limits assumed): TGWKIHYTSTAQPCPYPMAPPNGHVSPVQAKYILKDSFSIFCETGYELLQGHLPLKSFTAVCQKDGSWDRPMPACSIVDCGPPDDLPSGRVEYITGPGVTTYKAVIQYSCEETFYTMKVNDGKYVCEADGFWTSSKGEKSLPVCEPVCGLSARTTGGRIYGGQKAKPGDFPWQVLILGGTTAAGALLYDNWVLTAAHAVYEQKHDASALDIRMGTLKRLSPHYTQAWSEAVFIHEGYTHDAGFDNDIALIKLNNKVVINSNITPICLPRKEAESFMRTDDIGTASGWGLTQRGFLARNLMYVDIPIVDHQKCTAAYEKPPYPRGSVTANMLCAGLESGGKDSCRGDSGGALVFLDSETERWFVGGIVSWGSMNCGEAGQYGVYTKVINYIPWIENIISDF
Procedure: To measure binding of the 26 purified recombinant MASP-2 antibodies to human MASP-2 (CCP1-CCP2-SP fragment), a solid phase ELISA assay was carried out as follows. A MaxiSorp ELISA plate was coated with human MASP-2 (CCP1/2/SP fragment) at 1.0 μg/mL in carbonate/bi-carbonate buffer overnight at 4° C. […] The plate was washed (PBS-T, 0.05%) and a detection antibody was added (goat anti-human IgG-HRP) for one hour at room temperature. After another wash (PBS-T, 0.05%) the plate was developed (5 minutes) with OPT EIA TMB (BD Biosciences #555214). Absorbance reading at A450 was measured using the Spectramax M5e plate reader.
A solid phase ELISA assay was carried out to measure binding of the three selected MASP-2 inhibitory antibodies to human MASP-2 (CCP1-CCP2-SP fragment), as described in Example 1.

[7] = target: T1, human MASP-2 (endogenous, in normal …); experiment: cell-based or functional assay; remark: listed apart in the source
[8] = target: T1, human MASP-2 (endogenous, in normal …); experiment: cell-based or functional assay; remark: listed apart in the source

Binder | C3b deposition on mannan, 1.0% human serum, IC50 [1] [nM] | C3b deposition on mannan, 0.25% cynomolgus monkey serum, IC50 [2] [nM] | C3b deposition on mannan, 0.3% rat serum, IC50 [3] [nM] | C3b deposition on mannan, 1.0% mouse serum, IC50 [4] [nM] | C4b deposition on mannan, 50% human serum, IC50 [5] [µg/mL] | EC50 [6] [nM] | Human C3b deposition, IC50 [7] [nM] | Human C3b deposition, 1% human serum, IC50 [8]
B1 | 0.13 | 18.9 | 0.6 | > 100 | 0.09 | 0.41 | – | –
B2 | 0.15 | 0.4 | 0.05 | 0.5 | 0.07 | 0.25 | 0.09 | 0.15 nM and 0.12 nM
B3 | – | – | – | – | – | – | 0.07 | –
B4 | – | – | – | – | – | – | 0.16 | –
B5 | – | – | – | – | – | – | 0.53 | –
B6 | 0.6 | 26.2 | 0.3 | 5.8 | 0.1 | 0.23 | – | –
B7 | – | – | – | – | – | – | – | 0.09 nM
